Experiments:
Type in all cases: physicochemical
[1] = Formulation composition study: FT-NIR percent trehalose crystallization; details: trehalose 34.2% (wt/v), fast frozen, 12 months at −20° C.
Experimental: (§1) Fast freezing was accomplished by quench cooling fifty microliter sample aliquots drop-wise into liquid nitrogen. The freezing endpoint was determined by the increased opacity and the sinking of the sphere from the surface into a stainless steel mesh collection basket. After freezing, one-milliliter aliquots of bulk drug substance frozen pellets were removed from the liquid nitrogen and transferred into sterile, pre-chilled 5 cc glass vials. The vials were then stored on frozen CO2, and sealed with 20 mm Lyo-Stoppers. The formulation screen samples were fast frozen in 96-well microplates using liquid nitrogen. Immediately after the microplates were frozen, the samples were nucleated by scratching the ice surface with a 24 gauge needles (BD, Franklin Lakes, N.J.).
The formulation screen sample microplates were stored at two temperatures (−20±2° C., and −40±2° C.). The freezer temperature was monitored using a Yokogawa temperature monitoring system (Yokogawa Meters and Instruments Corporation, Tokyo, Japan).
Sample microplates for SEC analysis were stored isothermally for up to 365 days. Following frozen storage, microplates were thawed on the lab counter bench under ambient conditions (approximately 22° C.) prior to analysis. Control (0 day) samples were thawed immediately following completion of the freezing process. […]
The percent trehalose crystallization was determined using near infrared diffuse reflectance spectroscopy. […] Using these methods, sample NIR spectra were recorded from 10,000-4,000 cm^−1 using 32 averaged scans with 4 cm^−1 resolution on a Nicolet Antaris FT-Near IR Analyzer equipped with an integrating sphere module (Thermo Fisher Scientific, Waltham, Mass.). Percent trehalose crystallization was calculated using normalized peak intensity ratios of bands at 4306 cm^−1 and 4291 cm^−1 (Connolly, B., et al. (2010) Anal. Biochem. 399(1):48-57). […] Low volume (300 microliter) formulation screen samples were lyophilized and then analyzed for percent trehalose crystallization using the same method.

[2] = FT-NIR trehalose crystallization after frozen storage (freeze rate and storage temperature studies)
Experimental: To prepare the samples for slow and normal freezing, two milliliter sample aliquots were dispensed into autoclaved 5 cc glass vials and sealed with 20 mm Lyo-Stoppers using aseptic technique in a ventilated biosafety hood with laminar air flow. Slow freezing was accomplished by placing sample vials in a lyophilizer on pre-cooled shelves and held between −1° C. and −3° C. for 24 hours.
(§2) Normal freezing was accomplished by placing sample vials in a freezer at −20° C. until samples were completely frozen. To control for supercooling, ice was nucleated by applying frozen CO2 to the side of each vial until ice formation.
as §1
Samples frozen at the three freeze rates (slow, normal, and fast) by the methods described were transferred to three freezer units with set points of −20° C., −14° C., and −8° C. with a range of ±2° C. for frozen storage. The freezer temperature was monitored using a Yokogawa temperature monitoring system (Yokogawa Meters and Instruments Corporation, Tokyo, Japan). Sample vials were pulled after 0, 1, 2, 3, 6, 9 and 12 months of isothermal, frozen storage and placed on the lab counter bench under ambient conditions (approximately 22° C.) and allowed to thaw prior to analysis.
Samples intended for trehalose crystallization determination were first freeze-dried using a LyoStar II lyophilizer unit controlled by LyoManager II software (FTS Systems, Stone Ridge, N.Y.). The frozen samples were placed on a pre-cooled shelf and held at −35° C. for 7 hours prior to primary drying. Primary drying was achieved under a system pressure of 150 μm Hg by linearly increasing the shelf temperature to 20° C. at a rate of 0.2° C./min, followed by a 40 hour hold at 20° C. Secondary drying was performed by linearly increasing shelf temperature to 30° C. at 0.2° C./min, followed by an 8 hour hold at 30° C. Thermocouples were placed in various sample vials to monitor temperature during freeze-drying. Following secondary drying, sample vials were stoppered while still under vacuum to prevent samples from hydrating prior to analysis. Low volume (300 microliter), formulation screen samples were lyophilized in 96-well glass plates (Zinsser, Germany) using the same lyophilization method.
The percent trehalose crystallization was determined using near infrared diffuse reflectance spectroscopy. Data collection, calibration, and analysis methods used in this study were adapted from previous work focused on characterizing the spectral differences between amorphous trehalose and crystalline trehalose polymorphs (Connolly, B., et al. (2010) Anal. Biochem. 399(1):48-57). Using these methods, sample NIR spectra were recorded from 10,000-4,000 cm^−1 using 32 averaged scans with 4 cm^−1 resolution on a Nicolet Antaris FT-Near IR Analyzer equipped with an integrating sphere module (Thermo Fisher Scientific, Waltham, Mass.). Percent trehalose crystallization was calculated using normalized peak intensity ratios of bands at 4306 cm^−1 and 4291 cm^−1 (Connolly, B., et al. (2010) Anal. Biochem. 399(1):48-57). Data analysis was conducted using a linear regression analysis with MATLAB (R2007a, The MathWorks, Natick, Massachussetts) (Connolly, B., et al. (2010) Anal. Biochem. 399(1):48-57). […]

[3] = Visual trehalose crystallization in frozen trehalose solutions with pH indicating dye; details: 2.0, 4.0 and 8.0% (wt/v) trehalose, 20 mM histidine-acetate pH 5.5; normal freeze rate, −20° C. for 6 days
Experimental: Additional solutions were prepared with 0.0, 2.0, 4.0, and 8.0% (wt/v) trehalose in 20 mM histidine-acetate, at pH 5.5, and Water for Injection. Fifty microliters of pHydrion (pH Range: 0-7) pH-indicator dye (Micro Essential Laboratory, NY) was dispensed into a 10 cc glass vial and allowed to evaporate. Approximately four milliliters of the various trehalose formulations were added to the vial and the dye was allowed to dissolve in the solution. Photographs of frozen trehalose solutions were obtained using an Olympus Stylus 770SW digital camera (Olympus America Inc., NJ) in supermacro mode.
as §2
It is of significant interest to understand if trehalose crystallization impacts protein stability at pharmaceutically relevant (≤10% wt/v) concentrations. To evaluate the impact of nominal trehalose concentration on excipient crystallization, solutions were prepared with 0.0, 2.0, 4.0 and 8.0% (wt/v) trehalose dihydrate in the presence of pH indicating dye to better visualize crystallization. The samples were frozen using the normal freeze rate and stored at −20° C. for 6 days.

[4] = Turbidity analysis and visual inspection for precipitates; details: fast freeze samples
Experimental: The turbidity of the samples was measured by recording the average absorbance from 340-360 nm in a quartz cuvette with 1-cm path length (Eckhardt, B. M., et al. (1991) Pharm. Res. 8:1360-4) on an HP8453 spectrophotometer using Chemstation software (Agilent Technologies, Santa Clara, Calif.). Sterile water for injection was used to blank the instrument prior to analyses. Turbidity analysis of formulation screen samples was performed on a UV transparent, Corning half area, 96-well microplate using Spectramax M2 instrument (Molecular Devices, Sunnyvale). The turbidity was measured against a Sterile Water for Injection blank and the turbidity value measured by recording the average of the absorbance from 340-360 nm.

[5] = Fast freeze, 12 months frozen storage at −8° C.
[6] = Fast freeze, 12 months frozen storage at −14° C.
[7] = Fast freeze, 12 months frozen storage at −20° C.
[8] = Normal freeze, 12 months frozen storage at −8° C.
[9] = Normal freeze, 12 months frozen storage at −14° C.
[10] = Normal freeze, 12 months frozen storage at −20° C.
[11] = Slow freeze, 12 months frozen storage at −8° C.
[12] = Slow freeze, 12 months frozen storage at −14° C.
[13] = Slow freeze, 12 months frozen storage at −20° C.

OC[C@H]1O[C@H](O[C@H]2O[C@H](CO)[C@@H](O)[C@H](O)[C@H]2O)[C@H](O)[C@@H](O)[C@@H]1O [trehalose]
percent crystallized trehalose ([1]; [bevacizumab]=0 mg/mL): 86%
time at which trehalose crystallization reaches a plateau ([2]; frozen storage, data not shown): ≤ 2 weeks
visual trehalose crystallization after induced nucleation [3]: visually observed

Bevacizumab: recombinant humanized anti-VEGF IgG1 monoclonal antibody; 25 mg/mL in 5.4% trehalose, 51 mM sodium phosphate pH 6.2, 0.04% polysorbate 20
percent crystallized trehalose ([1]; [bevacizumab]=25 mg/mL): 61%
percent crystallized trehalose ([1]; [bevacizumab]=100 mg/mL): 47%
precipitates by turbidity analysis and visual inspection [4]: formation of precipitates
trehalose crystallization by FT-NIR, fast freeze samples ([2]; 12 month samples, fast freeze): measurable amounts of trehalose crystallization
trehalose crystallization by FT-NIR, slow and normal freeze samples ([2]; 12 month samples, slow and normal freeze): no measurable amounts of trehalose crystallization
Amorphous Trehalose [2, 5]: 3.8 % wt/v
Crystallized Trehalose [2, 5]: 1.6 % wt/v
Amorphous Trehalose [2, 6]: 2.9 % wt/v
Crystallized Trehalose [2, 6]: 2.5 % wt/v
Amorphous Trehalose [2, 7]: 3.0 % wt/v
Crystallized Trehalose [2, 7]: 2.5 % wt/v
Amorphous Trehalose [2, 8]: 5.2 % wt/v
Crystallized Trehalose [2, 8]: 0.3 % wt/v
Amorphous Trehalose [2, 9]: 5.1 % wt/v
Crystallized Trehalose [2, 9]: 0.3 % wt/v
Amorphous Trehalose [2, 10]: 5.1 % wt/v
Crystallized Trehalose [2, 10]: 0.3 % wt/v
Amorphous Trehalose [2, 11]: 5.2 % wt/v
Crystallized Trehalose [2, 11]: 0.2 % wt/v
Amorphous Trehalose [2, 12]: 5.2 % wt/v
Crystallized Trehalose [2, 12]: 0.3 % wt/v
Amorphous Trehalose [2, 13]: 5.1 % wt/v
Crystallized Trehalose [2, 13]: 0.3 % wt/v

Reference: patent publication US11370833B2, “Antibody formulations” (Genentech, Inc., priority 2014, dated 2022)
